Experimental data from US20250368686A1 (OKINAWA INSTITUTE OF SCIENCE AND TECHNOLOGY SCHOOL, published 2025).

What was measured:
[1] = target: the molecule itself; experiment: calculated from the equilibrium constants; after DAMGO
Procedure: (§1) The ratios of molecules that exist as dimers vs. monomers (D/M ratios) in terms of the number of protomers were calculated from KD at various expression levels (number density of molecules) (FIG. 2-4e, f). […] When they dissociate into monomers, they will again form dimers, but the rate of dimer formation depends on the number density of the monomers (and thus the expression levels).
(§2) The ratios of the numbers of protomers that exist as dimers vs. monomers at different expression levels in the PM were calculated from the three dynamic equilibrium constants and listed.

[2] = target: the molecule itself; experiment: inverse of the homodimer lifetime; no agonist
[3] = target: the molecule itself; experiment: calculated from the equilibrium constants; no agonist
Procedure: as §1, §2

[4] = target: the molecule itself; experiment: cell-based or functional assay
[5] = target: the molecule itself; experiment: inverse of the homodimer lifetime; after DAMGO
[6] = target: the molecule itself; experiment: calculated from KD (FIG. 2-4f)
Procedure: Accordingly, by subtracting the signal intensity after the quencher addition from that before the addition, we evaluated the percentages of the OPR molecules remaining in the PM (FIG. 2-s9; FIG. 2-5a). The time courses of the OPR numbers remaining in the PM after time 0 were examined in both the presence and absence of 0.2 μM agonists and ˜3 μM FAM-Xpep-TATs in the cytoplasm (FIG. 2-5b).

[7] = target: the molecule itself; experiment: inverse of the homodimer lifetime; after SNC-80
[8] = target: the molecule itself; experiment: colocalization durations; SNC-80 and FAM-Dpep-TAT present
[9] = target: the molecule itself; experiment: calculated from the equilibrium constants; after SNC-80
Procedure: as §1, §2

[10] = target: the molecule itself; experiment: inverse of the homodimer lifetime; after U-50488
[11] = target: the molecule itself; experiment: calculated from the equilibrium constants; after U-50488
Procedure: as §1, §2

[12] = target: T1, µ-type opioid receptor (MOR), rat, wild type, fluorescently tagged, expressed in the PM of CHO-K1 cells … (rat, UniProt P33535 1-398); experiment: dependence of the DOR-MOR colocalisation index on the concentration of the soluble peptide (competition on cells)
T1 construct: whole, on cells; also called WT-MOR; MOR-Halo; not shown: Halo tag

[13] = target: T1, µ-type opioid receptor (MOR), rat, wild …; experiment: colocalisation index, two-colour single-molecule imaging in CHO-K1 cells
Procedure: For simple quantification of the tendencies of OPR heterodimer formation, we employed the colocalisation index, a parameter based on the pair cross-correlation function (PCCF of the green and magenta spots), which is a measure of finding molecule B (for example, a green spot) within a 100 nm radius circle around molecule A (for example, a magenta spot) relative to farther distances of 400-500 nm (as a negative control, the video frames in the green channel were rotated 180° before overlaying; Extended Data FIG. 1-2).

Binder | koff [2] | D/M ratio (protomers in dimers vs monomers) at 0.3 copies/µm^2 [3] | D/M ratio (protomers in dimers vs monomers) at 1 copies/µm^2 [3] | D/M ratio (protomers in dimers vs monomers) at 3 copies/µm^2 [3] | D/M ratio (protomers in dimers vs monomers) at 10 copies/µm^2 [3] | D/M ratio (protomers in dimers vs monomers) at 30 copies/µm^2 [3] | Ca^2+ (FMax-Fb)/Fb; + Agonist + FAM-pep-TAT [4] | % of copies existing as dimers at ˜1 copy/µm^2, before agonist [6] | other results
SNAPf-MOR: rat MOR with the SNAPf tag protein at its N-terminus, expressed in the PM of CHO-K1 cells (Example 2) (receptor, not shown: small tags and cut ends, SNAPf tag covalently labelled with SNAP-Surface 549 or SNAP-CF660R, whole, on cells; Homodimer partner is the same molecule labelled in the other colour; also called WT MOR) SGGGSGGSGGGSGGSGGGSGGMDSSTGPGNTSDCSDPLAQASCSPAPGSWLNLSHVDGNQSDPCGLNRTGLGGNDSLCPQTGSPSMVTAITIMALYSIVCVVGLFGNFLVMYVIVRYTKMKTATNIYIFNLALADALATSTLPFQSVNYLMGTWPFGTILCKIVISIDYYNMFTSIFTLCTMSVDRYIAVCHPVKALDFRTPRNAKIVNVCNWILSSAIGLPVMFMATTKYRQGSIDCTLTFSHPTWYWENLLKICVFIFAFIMPVLIITVCYGLMILRLKSVRMLSGSKEKDRNLRRITRMVLVVVAVFIVCWTPIHIYVIIKALITIPETTFQTVSWHFCIALGYTNSCLNPVLYAFLDENFKRCFREFCIPTSSTIEQQNSTRVRQNTREHPSTANTVDRTNHQLENLEAETAPLP | 8.47 s⁻¹ | 0.08 | 0.22 | 0.54 | 1.23 | 2.41 | 2.78 (FMax-Fb)/Fb | 18% | D/M ratio (protomers in dimers vs monomers) at 0.3 copies/µm^2 [1]: 0.06; D/M ratio (protomers in dimers vs monomers) at 1 copies/µm^2 [1]: 0.17; D/M ratio (protomers in dimers vs monomers) at 3 copies/µm^2 [1]: 0.43; D/M ratio (protomers in dimers vs monomers) at 10 copies/µm^2 [1]: 1.02; D/M ratio (protomers in dimers vs monomers) at 30 copies/µm^2 [1]: 2.03; koff [5]: 5.35 s⁻¹
SNAPf-DOR: rat DOR with the SNAPf tag protein at its N-terminus, expressed in the PM of CHO-K1 cells (Example 2) (receptor, not shown: small tags and cut ends, SNAPf tag covalently labelled with SNAP-Surface 549 or SNAP-CF660R, whole, on cells; Homodimer partner is the same molecule labelled in the other colour; also called WT DOR) SGGGSGGSGGGSGGSGGGSGGMEPVPSARAELQFSLLANVSDTFPSAFPSASANASGSPGARSASSLALAIAITALYSAVCAVGLLGNVLVMFGIVRYTKLKTATNIYIFNLALADALATSTLPFQSAKYLMETWPFGELLCKAVLSIDYYNMFTSIFTLTMMSVDRYIAVCHPVKALDFRTPAKAKLINICIWVLASGVGVPIMVMAVTQPRDGAVVCTLQFPSPSWYWDTVTKICVFLFAFVVPILIITVCYGLMLLRLRSVRLLSGSKEKDRSLRRITRMVLVVVGAFVVCWAPIHIFVIVWTLVDINRRDPLVVAALHLCIALGYANSSLNPVLYAFLDENFKRCFRQLCRAPCGGQEPGSLRRPRQATARERVTACTPSDGPGGGAAA | 8 s⁻¹ | 0.07 | 0.21 | 0.5 | 1.17 | 2.3 | 2.84 (FMax-Fb)/Fb | 17% | koff [7]: 3.62 s⁻¹; fold of homodimer lifetime against wild-type DOR in the absence of the agonist [8]: ~1.5 fold; D/M ratio (protomers in dimers vs monomers) at 0.3 copies/µm^2 [9]: 0.15; D/M ratio (protomers in dimers vs monomers) at 1 copies/µm^2 [9]: 0.4; D/M ratio (protomers in dimers vs monomers) at 3 copies/µm^2 [9]: 0.89; D/M ratio (protomers in dimers vs monomers) at 10 copies/µm^2 [9]: 1.92; D/M ratio (protomers in dimers vs monomers) at 30 copies/µm^2 [9]: 3.62
SNAPf-KOR: rat KOR with the SNAPf tag protein at its N-terminus, expressed in the PM of CHO-K1 cells (Example 2) (receptor, not shown: small tags and cut ends, SNAPf tag covalently labelled with SNAP-Surface 549 or SNAP-CF660R, whole, on cells; Homodimer partner is the same molecule labelled in the other colour; also called WT KOR) SGGGSGGSGGGSGGSGGGSGGMESPIQIFRGEPGPTCAPSACLLPNSSSWFPNWAESDSNGSVGSEDQQLEPAHISPAIPVIITAVYSVVFVVGLVGNSLVMFVIIRYTKMKTATNIYIFNLALADALVTTTMPFQSAVYLMNSWPFGDVLCKIVISIDYYNMFTSIFTLTMMSVDRYIAVCHPVKALDFRTPLKAKIINICIWLLASSVGISAIVLGGTKVREDVDVIECSLQFPDDEYSWWDLFMKICVFVFAFVIPVLIIIVCYTLMILRLKSVRLLSGSREKDRNLRRITKLVLVVVAVFIICWTPIHIFILVEALGSTSHSTAVLSSYYFCIALGYTNSSLNPVLYAFLDENFKRCFRDFCFPIKMRMERQSTNRVRNTVQDPASMRDVGGMNKPV | 6.71 s⁻¹ | 0.19 | 0.5 | 1.08 | 2.28 | 4.26 | 2.46 (FMax-Fb)/Fb | 33% | koff [10]: 17.9 s⁻¹; D/M ratio (protomers in dimers vs monomers) at 0.3 copies/µm^2 [11]: 0.07; D/M ratio (protomers in dimers vs monomers) at 1 copies/µm^2 [11]: 0.22; D/M ratio (protomers in dimers vs monomers) at 3 copies/µm^2 [11]: 0.52; D/M ratio (protomers in dimers vs monomers) at 10 copies/µm^2 [11]: 1.2; D/M ratio (protomers in dimers vs monomers) at 30 copies/µm^2 [11]: 2.35
SDTFPSAFPSASANASGSPGARS (also called DpepDM(20-42); DpepDM) [Dpep(20-42)DM, soluble peptide with the N-terminal domain sequence aa20-42 of DOR] |  |  |  |  |  |  |  |  | Kd [12]: < 100 nM
κ-type opioid receptor (KOR), rat, wild type, fluorescently tagged, expressed in the PM of CHO-K1 cells (Example 1) (receptor, UniProt P34975 1-380, looked up, whole, on cells; also called WT-KOR; κ-OPR; not shown: fluorescent tag protein) MESPIQIFRGEPGPTCAPSACLLPNSSSWFPNWAESDSNGSVGSEDQQLEPAHISPAIPVIITAVYSVVFVVGLVGNSLVMFVIIRYTKMKTATNIYIFNLALADALVTTTMPFQSAVYLMNSWPFGDVLCKIVISIDYYNMFTSIFTLTMMSVDRYIAVCHPVKALDFRTPLKAKIINICIWLLASSVGISAIVLGGTKVREDVDVIECSLQFPDDEYSWWDLFMKICVFVFAFVIPVLIIIVCYTLMILRLKSVRLLSGSREKDRNLRRITKLVLVVVAVFIICWTPIHIFILVEALGSTSHSTAVLSSYYFCIALGYTNSSLNPVLYAFLDENFKRCFRDFCFPIKMRMERQSTNRVRNTVQDPASMRDVGGMNKPV |  |  |  |  |  |  |  |  | binding result [13]: no binding
